Test results from patent US20100310509A1 (published 2010).

Tests used:
[1] = biological target: T1, soluble human OSMR (Oncostatin M receptor) (human, UniProt Q99650 28-740); assay: SPR (SensiQ), OSM-M2 immobilised, soluble OSMR injected (150nM, 100nM, 50nM, 25nM, 10nM, 5nM)
T1 construct: extracellular domain; Bought; also called soluble OSMR
T1 sequence (looked up): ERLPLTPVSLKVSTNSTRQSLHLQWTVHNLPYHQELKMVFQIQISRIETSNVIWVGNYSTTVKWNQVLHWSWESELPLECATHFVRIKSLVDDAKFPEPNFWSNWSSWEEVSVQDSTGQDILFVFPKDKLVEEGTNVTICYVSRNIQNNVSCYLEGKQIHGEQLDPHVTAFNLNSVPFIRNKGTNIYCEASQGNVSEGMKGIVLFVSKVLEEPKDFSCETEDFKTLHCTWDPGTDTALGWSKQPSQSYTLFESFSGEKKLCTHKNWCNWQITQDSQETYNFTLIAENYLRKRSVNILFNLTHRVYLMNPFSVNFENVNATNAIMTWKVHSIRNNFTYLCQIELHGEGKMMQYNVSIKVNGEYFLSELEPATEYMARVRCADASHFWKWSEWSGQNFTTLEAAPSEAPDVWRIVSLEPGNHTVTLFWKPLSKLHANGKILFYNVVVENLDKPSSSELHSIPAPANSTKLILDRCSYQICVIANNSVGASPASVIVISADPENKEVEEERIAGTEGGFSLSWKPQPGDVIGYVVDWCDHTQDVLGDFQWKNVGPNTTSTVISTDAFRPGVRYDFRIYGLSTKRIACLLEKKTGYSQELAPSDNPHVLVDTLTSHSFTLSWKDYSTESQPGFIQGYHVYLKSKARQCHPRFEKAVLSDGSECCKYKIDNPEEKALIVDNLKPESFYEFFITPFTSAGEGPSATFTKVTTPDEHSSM
Description: (§1) Surface Plasmon Resonance (SPR): Kinetic parameters of the interactions between receptor domains and the cytokines LIF, OSM-WT, OSM-M1 or OSM-M2 were analyzed by SPR using the SENSIQ® system (ICX Technologies, Oklahoma City, Okla.) as described by the manufacturer protocol. Briefly, a carboxyl sensor with two channels was installed in SENSIQ® and allowed to thermally equilibrate for about 15 minutes. The channels were initially cleaned with a 3 minute injection of 0.1 M HCl. An activation solution of 2 mM 1-Ethyl-3-[3-dimethylaminopropyl]carbodiimide hydrochloride (EDC) and 0.5 mM N-hydroxysulfo succinimide (NHS) was prepared in deionized water immediately before injection. Activation solution was injected over both channels for approximately 3 minutes followed by a 10 minute injection of 50 μg/mL cytokine (LIF, OSM-WT, OSM-M1 or OSM-M2) in 10 mM acetate buffer, pH 5.0, over channel 1. […] Unreacted NHS esters were capped with a 3 minute injection of 1 M ethanolamine, pH 8.0, over both channels. […] A concentration series of soluble LIFR (# 249-LR-050/CF, R&D Systems, Minneapolis, Minn.), soluble OSMR (# 4389-OR-50, R&D Systems, Minneapolis, Minn.) or soluble gp130 (# 228-GP-050/CF, R&D Systems, Minneapolis, Minn.) in running buffer (10 mM HEPES pH 7.4, 150 mM NaCl, 3.4 mM EDTA, 0.005% Tween-20) were injected over both channels at a flow rate of 25 μl/min. […]

[2] = biological target: T1, soluble human OSMR (Oncostatin M …); assay: SPR (SensiQ), OSM-WT immobilised, soluble OSMR injected (150nM, 100nM, 50nM, 25nM, 10nM, 5nM)
Description: as §1

B1: OSM-M2 (OSM with BC loop truncated from 12 to 4 amino acids) (ligand)
chain: AAIGSCSKEYRVLLGQLQKQTDLMQDTSRLLDPYIRIQGLDVPKLREHCRERPGAFPSEETLRGLGRRGFLQTLNATLGCVLHRLADLEQRLGGGNIEDLEKLQMARPNILGLRNNIYCMAQLLDNSDTAEPTKAGAGASQPPTPTPASDAFQRKLEGCRFLHGYHRFMHSVGRVFSKWGESPN
notes: Made from the 'AGA' modified OSM template; lacks the thrombin site; not shown: N-terminal FLAG tag left after thrombin removal of GST
binding result [1]: no binding (tested: 150 nM)

B2: OSM-WT ('AGA' modified human Oncostatin M, referred to as wild-type OSM) (ligand)
chain: AAIGSCSKEYRVLLGQLQKQTDLMQDTSRLLDPYIRIQGLDVPKLREHCRERPGAFPSEETLRGLGRRGFLQTLNATLGCVLHRLADLEQRLPKAQDLERSGLNIEDLEKLQMARPNILGLRNNIYCMAQLLDNSDTAEPTKAGAGASQPPTPTPASDAFQRKLEGCRFLHGYHRFMHSVGRVFSKWGESPN
notes: also called hOSM with AGA modification; not shown: N-terminal FLAG tag left after thrombin removal of GST
binding result [2]: no binding (tested: 150 nM)
